The values that follow are results of earlier work, collected in publication PMC3749792.

What all share (experiment): NMR
Common to all, as to conditions: RNase T1, presumably free unmodified enzyme (not stated explicitly)

Series [1] has as its target His27 (UniProt position 53, AGYQLHEDGET).
For series [2], the target named is His40 (UniProt position 66, SNSYPHKYNNY).
Series [3] addresses His92 (UniProt position 118, AGVITHTGASG).

On to “Ribonuclease T1 (RNase T1) (Aspergillus oryzae)”, for which the pKa was 7.26 in series [1], 7.92 in series [2] and 7.80 in series [3].

For orientation: pKa means the negative logarithm of the acid dissociation constant.
